B1: IX LC/VII HC: construct containing the Factor IX light chain and Factor VII heavy chain (protein)
chain: YNSGKLEEFVQGNLERECMEEKCSFEEAREVFENTERTTEFWKQYVDGDQCESNPCLNGGSCKDDINSYECWCPFGFEGKNCELDVTCNIKNGRCEQFCKNSADNKVVCSCTEGYRLAENQKSCEPAVPFPCGRVSVSQTSKLTRIVGGKVCPKGECPWQVLLLVNGAQLCGGTLINTIWVVSAAHCFDKIKNWRNLIAVLGEHDLSEHDGDEQSRRVAQVIIPSTYVPGTTNHDIALLRLHQPVVLTDHVVPLCLPERTFSERTLAFVRFSLVSGWGQLLDRGATALELMVLNVPRLMTQDCLQQSRKVGDSPNITEYMFCAGYSDGSKDSCKGDSGGPHATHYRGTWYLTGIVSWGQGCATVGHFGVYTRVSQYIEWLQKLMRSEPRPGVLLRAPFP
B2: IX-A/VII: construct with the Factor IX gla and aromatic stack domains in Factor VII (protein)
chain: YNSGKLEEFVQGNLERECMEEKCSFEEAREVFENTERTTEFWKQYVDGDQCASSPCQNGGSCKDQLQSYICFCLPAFEGRNCETHKDDQLICVNENGGCEQYCSDHTGTKRSCRCHEGYSLLADGVSCTPTVEYPCGKIPILEKRNASKPQGRIVGGKVCPKGECPWQVLLLVNGAQLCGGTLINTIWVVSAAHCFDKIKNWRNLIAVLGEHDLSEHDGDEQSRRVAQVIIPSTYVPGTTNHDIALLRLHQPVVLTDHVVPLCLPERTFSERTLAFVRFSLVSGWGQLLDRGATALELMVLNVPRLMTQDCLQQSRKVGDSPNITEYMFCAGYSDGSKDSCKGDSGGPHATHYRGTWYLTGIVSWGQGCATVGHFGVYTRVSQYIEWLQKLMRSEPRPGVLLRAPFP
B3: SB 257732: humanized anti-Factor IX mAb, heavy chain F9HZHC 3-0 (SEQ ID NO: 89), light chain F9HZLC 3-0 (SEQ ID NO: 99) (antibody, V domains shown)
VH: MGWSCIILFLVATATGVHSQIQLVQSGSELKKPGASVKVSCKASGYTFTNYGMNWVRQAPGQGLEWMGWINTRNGKSTYVDDFKGRFVFSLDTSVSTAYLQISSLKAEDTAVYFCTREGNMDGYFPFTYWGQGTLVTVSS
VL: MGWSCIILFLVATATGVHSQIVLTQSPSSLSASVGDRVTITCRASSSVNYMHWYQQKPGKAPKPWIYATSNLASGVPSRFSGSGSGTDYTLTISSLQPEDFATYYCQQWSINPRTFGGGTKLEIKRTVV
B4: Chf9: mouse-human chimeric antibody directed against human Factor IX, chains F9CHLC and F9CHHC with BC2 variable regions (antibody)
heavy: QIQLVQSGPELKKPGETVKISCKASGYTFTNYGMNWVKQAPGKGLKWMGWINTRNGKSTYVDDFKGRFAFSLESSASTANLQIDNLKDEDTATYFCTREGNMDGYFPFTYWGQGTLVTVSA
light: QIVLSQSPAILSASPGEKVTMTCRASSSVNYMHWYQQKPGSSPKPWIYATSNLASGVPARFSGSGSGTSYSLTISRVEAEDAATYYCQQWSINPRTFGGGTKLEIK
B5: SB 249413: humanized anti-Factor IX mAb, heavy chain F9HZHC 1-0 (SEQ ID NO: 31), light chain F9HZLC 1-0 (SEQ ID NO: 44) (antibody, V domains shown)
VH: QVQLVQSGSELKKPGASVKVSCKASGYTFTNYGMNWVRQAPGQGLEWMGWINTRNGKSTYVDDFKGRFVFSLDTSVSTAYLQISSLKADDTAVYYCAREGNMDGYFPFTYWGQGTLVTVSS
VL: EIVLTQSPATLSLSPGERATLSCRASSSVNYMHWYQQRPGQAPRLLIYATSNLASGIPARFSGSGSGTDFTLTISSLEPEDFAVYYCQQWSINPRTFGGGTKVEIKR
B6: SB 249416: humanized anti-Factor IX mAb, heavy chain F9HZHC 1-1 (SEQ ID NO: 52), light chain F9HZLC 1-2 (SEQ ID NO: 62) (antibody, V domains shown)
VH: B5 VH with E46K, T74S, A97T
VL: B5 VL with R44K, L45P, L46W, I57V, F70Y
B7: SB 257731: humanized anti-Factor IX mAb, heavy chain F9HZHC 1-1 (SEQ ID NO: 52), light chain F9HZLC 1-3 (SEQ ID NO: 78) (antibody, V domains shown)
VH: B5 VH with E46K, T74S, A97T
VL: MGWSCIILFLVATATGVHSQIVLTQSPATLSLSPGERATLSCRASSSVNYMHWYQQRPGQAPKPWIYATSNLASGVPARFSGSGSGTDYTLTISSLEPEDFAVYYCQQWSINPRTFGGGTKVEIK
B8: SB 249415: humanized anti-Factor IX mAb, heavy chain F9HZHC 1-1 (SEQ ID NO: 52), light chain F9HZLC 1-1 (SEQ ID NO: 57) (antibody, V domains shown)
VH: B5 VH with E46K, T74S, A97T
VL: B5 VL with R44K, L45P, L46W, I57V

Where a chain is given by its changes, count along the chain named. Entries after “also recorded” stand apart in the source; their conditions may differ.

From patent publication US20020146411A1, “Anticoagulant agents useful in treatment of thrombosis” (SmithKline Beecham Corporation, priority 1996, published 2002) come the findings set out here.

The first test deals with BC2 antibody. The test can be described thus: BiaCore binding of Factor IX/Factor VII constructs to immobilized BC2. To be noted: 200 nM construct, 25 mM MOPS pH 7.4, 0.15 M NaCl, 5 mM CaCl2. How it is done: A library of chimeric constructs composed of sequences of Factor IX spliced into the framework of the homologous protein Factor VII was constructed and used to map the epitope for the Factor IX BC2 mAb. See Cheung et al., Thromb. Res. 80, 419-427 (1995). Binding was measured using a BiaCore 2000 surface plasmon resonance device. The BC2 antibody was coupled directly to the chip using the NHS/EDC reaction. Binding was measured by 2 min of contact time at 20 uL/min with 200 nM of each of the given constructs in 25 mM MOPS, pH 7.4, 0.15 M NaCl, 5 mM CaCl2. Dissociation was monitored for 3 min using the same buffer with no protein. No binding was detected to the wild type construct in the presence of 50 mM EDTA.
In the case of B1, the “Degree of Binding to BC2” value is recorded as “exhibit binding to BC2; also recorded: Binds”.

Turning to B2, the “Degree of Binding to BC2” value is listed as “exhibit binding to BC2; also recorded: Binds”.

The target of a further test is T1, Recombinant human Factor IX (rhFIX) (Homo sapiens, UniProt P00740, T194A).
T1 construct: purchased Genetics Institute
T1 sequence (P00740 47-461 T194A): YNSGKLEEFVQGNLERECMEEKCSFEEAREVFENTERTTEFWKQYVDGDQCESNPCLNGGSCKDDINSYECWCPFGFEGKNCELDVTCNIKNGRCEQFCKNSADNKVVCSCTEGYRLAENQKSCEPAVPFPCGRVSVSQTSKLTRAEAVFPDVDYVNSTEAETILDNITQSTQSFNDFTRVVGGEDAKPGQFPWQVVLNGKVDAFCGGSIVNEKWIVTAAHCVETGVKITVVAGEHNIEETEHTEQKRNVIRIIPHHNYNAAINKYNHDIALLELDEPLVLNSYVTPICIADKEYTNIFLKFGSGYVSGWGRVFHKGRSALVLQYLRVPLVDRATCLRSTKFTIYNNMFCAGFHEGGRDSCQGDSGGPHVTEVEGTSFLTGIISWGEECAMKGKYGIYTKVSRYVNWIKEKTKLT
The test can be described thus: BIAcore kinetics of Factor IX binding to mAb on protein A surface. Particulars: rhFIX 49 nM, 5 mM Ca2+, biosensor. How it is done:
The kinetics of Factor IX binding to SB 249417 was assessed by BIAcore analysis with antibody bound to an immobilized protein A surface. Recombinant human Factor IX (rhFIX, Genetics Institute) at 49 nM was used and measurements performed in the presence of 5 mM Ca^2+. The interaction was characterized by rapid association, kass 2.0×10^5 M^−1 s^−1 and relatively slow off-rate, kdiss=4.1×10^−4 s^−1.
Consider B3, for which the kass turned out to be 1.1e+06 M⁻¹ s⁻¹ and the kdiss came to 0.0012 s⁻¹.

As for B4, the kass turned out to be 240000 M⁻¹ s⁻¹ and the kdiss is 0.0003 s⁻¹.

With B5, the kass worked out at 650000 M⁻¹ s⁻¹ and the kdiss stood at 0.0028 s⁻¹.

Turning to B6, the kass is 520000 M⁻¹ s⁻¹ and the kdiss came out at 0.00041 s⁻¹.

On to B7, for which the kass is 920000 M⁻¹ s⁻¹ and the kdiss amounted to 0.00099 s⁻¹.

For B8, the kass was determined as 750000 M⁻¹ s⁻¹ and the kdiss came out at 0.00018 s⁻¹.

The subject of another test is rat carotid artery thrombosis. Briefly: Rat carotid artery thrombosis model, humanized mAbs, Example 8. Type of test: in vivo. Particulars: 3.0 mg/kg i.v. bolus, 60 minutes after onset of injury. The protocol: In order to evaluate the efficacy of humanized anti-Factor IX antibodies in prevention of arterial thrombosis, the rat carotid artery thrombosis model as described above in Example 3 was used. Baseline parameters were established for carotid blood flow, arterial pressure, heart rate, vessel patency and activated partial thromboplastin time (aPTT). Fifteen minutes thereafter, carotid injury was effected for […]. The parameters were determined 60 minutes after onset of carotid injury. Carotid thrombus was also extracted from the carotid artery and weighed.
All agents were administered intravenously 15 minutes before the onset of carotid injury. The following treatments were examined and compared to the anti-Factor IX mAb BC2.
Take B5: the “effect on aPTT (FIG. 8)” value is “modest effect”.

Consider B6, for which the “effect on aPTT (FIG. 8)” value is “modest effect”.

Turning to B7, the “effect on aPTT (FIG. 8)” value is given as “modest effect”.

Take B8: the “effect on aPTT (FIG. 8)” value is “modest effect”.
